Reference: PMC12808597 (2025)

B1: human glucagon-like peptide-1 receptor, untagged (receptor)
chain: RPQGATVSLWETVQKWREYRRQCQRSLTEDPPPATDLFCNRTFDEYACWPDGEPGSFVNVSCPWYLPWASSVPQGHVYRFCTAEGLWLQKDNSSLPWRDLSECEESKRGERSSPEEQLLFLYIIYTVGYALSFSALVIASAILLGFRHLHCTRNYIHLNLFASFILRALSVFIKDAALKWMYSTAAQQHQWDGLLSYQDSLSCRLVFLLMQYCVAANYYWLLVEGVYLYTLLAFSVLSEQWIFRLYVSIGWGVPLLFVVPWGIVKYLYEDEGCWTRNSNMNYWLIIRLPILFAIGVNFLIFVRVICIVVSKLKANLMCKTDIKCRLAKSTLTLIPLLGTHEVIFAFVMDEHARGTLRFIKLFTELSFTSFQGLMVAILYCFVNNEVQLEFRKSWERWRLEHLHIQRDSSMKPLKCPTSSLSSGATAGSSMYTATCQASCS
B2: mouse glucagon-like peptide-1 receptor, untagged (receptor)
chain: GPRPQGTTVSLSETVQKWREYRRQCQRFLTEAPLLATGLFCNRTFDDYACWPDGPPGSFVNVSCPWYLPWASSVLQGHVYRFCTAEGLWLHKDNSSLPWRDLSECEESKRGERNFPEEQLLSLYIIYTVGYALSFSALVIASAILVGFRHLHCTRNYIHLNLFASFILRALSVFIKDAALKWMYSTAAQQHQWDGLLSYQDSLGCRLVFLLMQYCVAANYYWLLVEGVYLYTLLAFSVFSEQRIFKLYLSIGWGVPLLFVIPWGIVKYLYEDEGCWTRNSNMNYWLIIRLPILFAIGVNFLIFIRVICIVVSKLKANLMCKTDIKCRLAKSTLTLIPLLGTHEVIFAFVMDEHARGTLRFIKLFTELSFTSFQGLMVAILYCFVNNEVQMEFRKCWERWRLEHLNIQRDCSMKPLKCPTSSVSSGATVGSSVYAATCQSSYS
B3: GLP-1R endogenously expressed in INS-1 832/3 clonal rat β-cells (receptor)
chain: GPRPQGATVSLSETVQKWREYRHQCQRFLTEAPLLATGLFCNRTFDDYACWPDGPPGSFVNVSCPWYLPWASSVLQGHVYRFCTAEGIWLHKDNSSLPWRDLSECEESKQGERNSPEEQLLSLYIIYTVGYALSFSALVIASAILVSFRHLHCTRNYIHLNLFASFILRALSVFIKDAALKWMYSTAAQQHQWDGLLSYQDSLGCRLVFLLMQYCVAANYYWLLVEGVYLYTLLAFSVFSEQRIFKLYLSIGWGVPLLFVIPWGIVKYLYEDEGCWTRNSNMNYWLIIRLPILFAIGVNFLVFIRVICIVIAKLKANLMCKTDIKCRLAKSTLTLIPLLGTHEVIFAFVMDEHARGTLRFVKLFTELSFTSFQGFMVAVLYCFVNNEVQMEFRKSWERWRLERLNIQRDSSMKPLKCPTSSVSSGATVGSSVYAATCQNSCS

How the values were obtained:
[1] = target: exendin-asp3 Cy5 conjugate (Cy5 fluorophore (conjugation position shown in Figure 2A))
[2] = target: exendin-phe1 tetramethylrhodamine conjugate (tetramethylrhodamine (TMR) fluorophore (conjugation position shown in Figure 2A))
[3] = target: exendin-asp3 tetramethylrhodamine conjugate (tetramethylrhodamine (TMR) fluorophore (conjugation position shown in Figure 2A))
[4] = target: exendin-phe1 Cy5 conjugate (Cy5 fluorophore (conjugation position shown in Figure 2A))

Binder	Kd [1] [nM]	Kd [2] [nM]	Kd [3] [nM]	Kd [4] [nM]
B1	2.8	18.5		
B2	2.7	6.7	5.9	
B3		12.3		0.7
